The record followed here is US20260234226A1 (IMAGINAB, published 2026).

By EC50 is commonly meant the concentration needed to bring the measured effect to its halfway point. As usually defined, the Kd is the free concentration of one partner at which half of the binding sites on the other are occupied at equilibrium, for simple one-to-one binding. A higher Kd goes with weaker binding. For orientation: koff means the first-order rate constant of dissociation. Higher therefore signals fast dissociation. As usually defined, the kon is a measure of how fast the partners come together. A high value points to fast association. The EC50 (read off the curve) is the concentration giving half of the maximal effect.

Changes are numbered by the printed parent chain. Some results are limits rather than exact numbers.

First the molecules themselves.
T1: DLL3 on tumor cells of the SHP-77 and NCI-H82 cell lines (UniProt Q9NYJ7 27-618, limits assumed)
T1 construct: whole, on cells; also called cellular targets
T1 sequence (looked up): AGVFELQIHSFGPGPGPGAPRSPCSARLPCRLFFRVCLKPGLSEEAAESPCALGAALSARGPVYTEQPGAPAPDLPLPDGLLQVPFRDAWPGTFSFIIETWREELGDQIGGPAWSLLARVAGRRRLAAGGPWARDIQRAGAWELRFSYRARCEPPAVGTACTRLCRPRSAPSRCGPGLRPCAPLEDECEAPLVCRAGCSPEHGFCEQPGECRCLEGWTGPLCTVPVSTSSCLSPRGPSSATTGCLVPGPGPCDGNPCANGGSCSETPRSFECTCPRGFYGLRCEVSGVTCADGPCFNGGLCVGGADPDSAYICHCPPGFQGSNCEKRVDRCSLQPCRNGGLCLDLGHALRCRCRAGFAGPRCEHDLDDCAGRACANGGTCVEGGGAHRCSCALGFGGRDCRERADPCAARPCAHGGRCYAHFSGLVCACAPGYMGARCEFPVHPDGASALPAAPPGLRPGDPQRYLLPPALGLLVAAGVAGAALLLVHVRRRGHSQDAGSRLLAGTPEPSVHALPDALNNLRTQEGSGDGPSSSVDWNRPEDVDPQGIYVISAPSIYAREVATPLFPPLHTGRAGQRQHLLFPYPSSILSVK

B1: IAB57M2-2 (other)
chain: QVQLVQSGAEVKKPGASVKVSCKASGYTFTNYGMNWVRQAPGQGLEWMGWINTYTGEPTYADDFKGRVTMTTDTSTSTAYMELRSLRSDDTAVYYCARIGDSSPSDYWGQGTLVTVSSGSTSGGGSGGGSGGGGSSEIVMTQSPATLSVSPGERATLSCKASQSVSNDVVWYQQKPGQAPRLLIYYASNRYTGIPARFSGSGSGTEFTLTISSLQSEDFAVYYCQQDYTSPWTFGQGTKLEIKEPKSSDKTHTCPPCPPCGGGSSGGGSGGQPREPQVYTLPPSREEMTKNQVSLTCLVKGFYPSDIAVEWESNGQPENNYKTTPPVLDSDGSFFLYSKLTVDKSRWQQGNVFSCSVMHEALHNHYTQKSLSLSPG
notes: Parental minibody; Signal peptide left out; also called parental minibody IAB57M2-2
B2: IAB57M2-6 (other)
chain: B1 chain with Y191N
notes: Signal peptide left out
B3: IAB57M2-4 (other)
chain: B1 chain with Y186D
notes: Signal peptide left out
B4: IAB57M2-8 (other)
chain: B1 chain with Y186D, Y191N
notes: Signal peptide left out
B5: IAB57M1-1 (other)
chain: EIVMTQSPATLSVSPGERATLSCKASQSVSNDVVWYQQKPGQAPRLLIYYASNRYTGIPARFSGSGSGTEFTLTISSLQSEDFAVYYCQQDYTSPWTFGQGTKLEIKGSTSGGGSGGGSGGGGSSQVQLVQSGAEVKKPGASVKVSCKASGYTFTNYGMNWVRQAPGQGLEWMGWINTYTGEPTYADDFKGRVTMTTDTSTSTAYMELRSLRSDDTAVYYCARIGDSSPSDYWGQGTLVTVSSEPKSSDKTHTCPPCPPCGGGSSGGGSGGQPREPQVYTLPPSREEMTKNQVSLTCLVKGFYPSDIAVEWESNGQPENNYKTTPPVLDSDGSFFLYSKLTVDKSRWQQGNVFSCSVMHEALHNHYTQKSLSLSPG
notes: Parental minibody; also called parental minibody IAB57M1-1
B6: IAB57M1-7 (other)
chain: B5 chain with Y50D, Y55N
notes: Signal peptide left out
B7: IAB57M1-5 (other)
chain: B5 chain with Y55N
notes: Signal peptide left out
B8: IAB57M1-3 (other)
chain: B5 chain with Y50D
notes: Signal peptide left out

T2 sequence (Q9NYJ7 whole entry): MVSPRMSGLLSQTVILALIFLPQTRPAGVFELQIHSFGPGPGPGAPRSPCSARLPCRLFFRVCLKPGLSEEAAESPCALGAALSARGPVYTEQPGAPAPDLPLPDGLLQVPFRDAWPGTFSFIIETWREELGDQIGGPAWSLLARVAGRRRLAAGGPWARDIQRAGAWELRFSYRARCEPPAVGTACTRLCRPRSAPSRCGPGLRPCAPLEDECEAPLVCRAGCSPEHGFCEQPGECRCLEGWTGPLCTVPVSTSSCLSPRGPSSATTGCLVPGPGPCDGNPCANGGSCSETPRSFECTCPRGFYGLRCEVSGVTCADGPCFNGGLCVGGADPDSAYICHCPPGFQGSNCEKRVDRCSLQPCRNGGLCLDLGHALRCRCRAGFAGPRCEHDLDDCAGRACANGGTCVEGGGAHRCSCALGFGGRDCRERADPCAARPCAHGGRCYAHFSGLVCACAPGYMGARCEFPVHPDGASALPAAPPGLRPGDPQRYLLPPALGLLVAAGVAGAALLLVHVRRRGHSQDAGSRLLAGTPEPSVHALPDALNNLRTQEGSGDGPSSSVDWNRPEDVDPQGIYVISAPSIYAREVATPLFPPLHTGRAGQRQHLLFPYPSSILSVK

The first assay concerns the target T2, purified human/cynomolgus/dog/mouse/rat or minipig DLL3 antigen (ELISA coat) (human/cynomolgus/dog/mouse/rat or …).
T2 construct: May be the same protein as the his-tagged antigen used for BLI
Nature of the assay: ELISA, plate coated with purified DLL3 antigen, HRP secondary (FIG. 8). How it is done: (§1) Binding affinity of the novel antigen binding constructs to a purified human/cynomolgus/dog/mouse/rat or minipig DLL3 antigen was assessed using ELISA. For this assay, a 96 well ELISA plate was coated with the DLL3 antigen diluted to a concentration of […] in coating buffer (0.05M sodium carbonate-bicarbonate buffer, pH 9.6). 100 μl of this coating solution was added to each well in the plate and incubate at 4° C. overnight. The plate was washed 3 times with 300 μl per well of washing buffer (PBS with 0.05% Tween-20). After the last wash, the plate was blocked by adding to each well 200 μl of blocking buffer (PBS with 1% BSA) warmed to room temperature. The plate was then incubated at room temperature for 1 hour under gentle agitation. After blocking, the plate was washed 3 times with 300 μl per well of washing buffer. Dilution samples for each minibody were created by making 2.5× dilutions from a starting sample at 100 ng/mL, or 250 ng/mL, or 1000 ng/mL or 3000 ng/mL in 100 μL sample buffer (PBS with 1% BSA). The dilution samples were transferred to the assay plate and incubated at room temperature for 1 hour under gentle agitation. The plate was then washed 3 times with 300 μl per well of washing buffer.
Detection was performed by adding 100 μl of HRP labeled detection secondary antibody at an appropriate dilution and incubating the plate at room temperature for 1 hour under gentle agitation. The plate was then washed 3 times with 300 μl per well of washing buffer. For color development, 100 μl of TMB substrate regent, pre-warmed to room temperature, was added to the plate and incubated in the dark at room temperature for 15 min. The reaction was then stopped by adding 100 μl of 650 nm stop solution to the plate and mixed for 1 min at room temperature under gentle agitation. The plate is recorded by reading OD at 650 nm in a plate reader within 20 min after terminating the reaction.
In general terms: ELISA stands for enzyme-linked immunosorbent assay.
Molecule B1 had a concentration giving a half-maximal response (EC50) of 0.12 nM.
Turning to B2, the EC50 stood at 0.161 nM.
The same measure, in the same setting: next, B3: 0.118 nM; B4: 0.123 nM; B5: 0.0946 nM.
The same measure, in the same setting: then B6, with 0.111 nM; and B7, with 0.125 nM.
B8 had an EC50 of 0.109 nM.

The target of another assay is T3, his-tagged-DLL3 antigen (purified human/cynomolgus/dog/mouse/rat or minipig DLL3 antigen) (human/cynomolgus/dog/mouse/rat or …).
T3 construct: Antigen loaded on nickel-NTA tips for biolayer interferometry; also called Delta-like protein 3
T3 sequence (Q9NYJ7 whole entry): as above
Put plainly: biolayer interferometry (Octet BLItz), his-tagged DLL3 on nickel-NTA tip, minibody in solution. As to the method:
(§2) As disclosed herein, the binding kinetics of the novel antigen binding constructs to a purified human/cynomolgus/dog/mouse/rat or minipig DLL3 antigen was assessed using biolayer interferometry (TABLE 9) (FIG. 9). The his-tagged-DLL3 antigen was diluted in phosphate buffer saline (PBS) at 10 μg/mL and loaded on a nickel-NTA tip until saturation. The on-rate (Kon) and off-rate (Koff), and the dissociation constant KD, where recorded on Octet BLItz instrument. Dilution samples of the antigen binding construct were prepared in PBS at concentrations between 100 nM and 0.1 nM, by 2.5× dilutions and binding curves recorded at each concentration. Off-rate curves were recorded by immersion of the tip in PBS.
For orientation: Biolayer interferometry detects binding as a change in optical thickness at a sensor tip.
For the molecule B1, the Kd turned out to be 3.07 nM, the koff turned out to be 0.00214 s⁻¹ and the kon was determined as 698000 M⁻¹ s⁻¹.
In the same order, the values of B2 are below 0.001 nM, below 1e-07 s⁻¹ and 785000 M⁻¹ s⁻¹.
As to B3, binding was characterised by a dissociation constant (Kd) of 4.84 nM, the koff worked out at 0.00281 s⁻¹ and the kon was determined as 581000 M⁻¹ s⁻¹.
The corresponding values for B5 are 3.33 nM, 0.00279 s⁻¹ and 838000 M⁻¹ s⁻¹.
B8: the Kd was determined as 4 nM, the koff was 0.00239 s⁻¹ and the kon is 599000 M⁻¹ s⁻¹.

A further assay deals with T1, DLL3 on tumor cells of the SHP-77 and …. Put plainly: flow cytometry on SHP-77 tumor cells, mean fluorescence; the legend gives no unit, nM is from the axis '[Minibody],nM'. How it is done:
(§3) As disclosed herein, the binding of constructs to cellular targets was assessed using flow cytometry. Stock of 2.5× serial dilution of minibodies were created starting from a concentration of 100 nM in 180 μl FACS buffer (PBS 2% FBS). Cells were added to a Corning V-bottom polypropylene cell culture plate at 200,000 cells/well. The cells were centrifuged at 100 rpm for 3 minutes and the supernatant discarded. The minibody dilution series were transferred to the plate containing cell pellets and incubated for 1 hr at 4° C. The plate was then washed 3 times with FACS buffer at 200 μl/well, discarding supernatant after each wash by centrifugation at 1000 rpm. 50 μl/well of detection antibody R&D AlexaFluor-647 Goat anti Human (H+L) was added at a 1:100 dilution in FACS buffer and incubated at 4° C. 1 hr. The plate was washed 3 times with FACS buffer at 200 μl/well, discarding supernatant after each wash by centrifuging at 1000 rpm. Cells were then fixed by adding 100 μl of 1% paraformaldehyde in PBS and incubating at room temperature for 15 minutes. 100 μl of PBS were added to each well and the plate was analyzed by flow cytometry using the allophycocyanin fluorescence setting.
B2 registered an EC50 of 0.014 nM.
Regarding B8, the EC50 is 0.01 nM.

For a further assay the target is unchanged. Put plainly: flow cytometry on NCI-H82 tumor cells, mean fluorescence; the legend gives no unit, nM is from the axis '[Minibody],nM'. How it is done:
as §3
(A flow cytometer gives signals particle by particle.)
B2: a half-maximal response (EC50) required 0.063 nM.
On to B8, for which the EC50 was 0.04 nM.

A further assay addresses T2, purified human/cynomolgus/dog/mouse/rat …. Put plainly: ELISA on plate-coated recombinant DLL3 antigen, A650 readout, panel with IAB57M1-7, IAB57M2-8, IAB57M1-3 and IAB57M2-6. How it is done: as §1, with “The dilution samples were transferred to the assay plate and incubated at room temperature for 1 hour under gentle agitation. The plate was then washed 3 times with 300 μl per well of washing buffer.” left out
(§4) Detection was performed by adding 100 μl of HRP labeled detection secondary antibody at an appropriate dilution and incubating the plate at room temperature for 1 hour under gentle agitation. […] The plate is recorded by reading OD at 650 nm in a plate reader within 20 min after terminating the reaction.
In the case of B8, the “EC50 (read off the curve)” value is around 0.1 nM.

The next assay has as its target T3, his-tagged-DLL3 antigen (purified …). Nature of the assay: biolayer interferometry, his-tagged DLL3 on a Ni-NTA tip, minibody at 100 nM; the table gives no unit, nm is from the axis 'Binding (nm)'. As to the method: as §2
Consider B1, for which the R equilibrium amounted to 0.876 nm.
Same read-out and setting: next, B3: 0.911 nm; B8: 1.04 nm.

The target of another assay is T2, purified human/cynomolgus/dog/mouse/rat …. Put plainly: ELISA on plate-coated recombinant DLL3 antigen, A650 readout, left panel 'DLL3 ELISA'; the table gives no unit, nM is from the axis 'Antibody Concentration (nM)'. How it is done:
as §1, with “The dilution samples were transferred to the assay plate and incubated at room temperature for 1 hour under gentle agitation. The plate was then washed 3 times with 300 μl per well of washing buffer.” left out
as §4
For B1, the EC50 worked out at 0.132 nM.
As for B5, the half-maximal effective concentration (EC50) was 0.115 nM.

The next assay has the same target. Nature of the assay: ELISA on plate-coated recombinant DLL3 antigen, A650 readout, panel with IAB57M1-7, IAB57M2-8, IAB57M1-3 and IAB57M2-6; the table gives no unit, nM is from the axis 'Antibody Concentration (nM)'. As to the method: as §1, with “The dilution samples were transferred to the assay plate and incubated at room temperature for 1 hour under gentle agitation. The plate was then washed 3 times with 300 μl per well of washing buffer.” left out
as §4
As to B2, the EC50 was 0.157 nM.
